The record followed here is patent US20220170923A1 (NATIONAL CHENG KUNG UNIVERSITY, published 2022).

The target of the experiment is T1, human angiotensin-converting enzyme 2 (ACE2) (human, UniProt Q9BYF1 18-740).
T1 construct: also called ACE2 receptor; human angiotensin-converting enzyme 2 on a cell surface
Put plainly: protein microarray, ACE2 in solution, Cy3 labeled anti-human IgG detection.

T1 sequence (Q9BYF1 18-740 limits assumed): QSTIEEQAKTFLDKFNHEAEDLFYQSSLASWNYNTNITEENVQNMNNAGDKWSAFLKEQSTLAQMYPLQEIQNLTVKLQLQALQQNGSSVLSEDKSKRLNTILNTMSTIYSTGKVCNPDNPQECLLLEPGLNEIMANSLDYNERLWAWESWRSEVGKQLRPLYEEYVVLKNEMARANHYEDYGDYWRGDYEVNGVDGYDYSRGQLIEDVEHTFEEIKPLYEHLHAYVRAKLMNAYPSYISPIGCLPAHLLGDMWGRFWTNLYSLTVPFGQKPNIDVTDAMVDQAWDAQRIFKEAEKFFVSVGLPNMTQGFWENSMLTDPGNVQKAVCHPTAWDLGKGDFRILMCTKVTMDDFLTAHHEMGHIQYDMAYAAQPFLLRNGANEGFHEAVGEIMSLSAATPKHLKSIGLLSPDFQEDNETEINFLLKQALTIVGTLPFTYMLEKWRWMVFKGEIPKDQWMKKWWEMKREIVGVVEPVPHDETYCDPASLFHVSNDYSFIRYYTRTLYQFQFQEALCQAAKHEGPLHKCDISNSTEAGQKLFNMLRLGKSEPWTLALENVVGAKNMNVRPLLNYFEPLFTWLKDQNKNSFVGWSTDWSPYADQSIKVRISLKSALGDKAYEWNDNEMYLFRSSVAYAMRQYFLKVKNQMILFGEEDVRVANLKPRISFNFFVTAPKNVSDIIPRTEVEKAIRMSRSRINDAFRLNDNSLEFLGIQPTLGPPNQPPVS

B1: spike protein (S protein) of MERS-CoV with His-tag (other)
chain: YVDVGPDSVKSACIEVDIQQTFFDKTWPRPIDVSKADGIIYPQGRTYSNITITYQGLFPYQGDHGDMYVYSAGHATGTTPQKLFVANYSQDVKQFANGFVVRIGAAANSTGTVIISPSTSATIRKIYPAFMLGSSVGNFSDGKMGRFFNHTLVLLPDGCGTLLRAFYCILEPRSGNHCPAGNSYTSFATYHTPATDCSDGNYNRNASLNSFKEYFNLRNCTFMYTYNITEDEILEWFGITQTAQGVHLFSSRYVDLYGGNMFQFATLPVYDTIKYYSIIPHSIRSIQSDRKAWAAFYVYKLQPLTFLLDFSVDGYIRRAIDCGFNDLSQLHCSYESFDVESGVYSVSSFEAKPSGSVVEQAEGVECDFSPLLSGTPPQVYNFKRLVFTNCNYNLTKLLSLFSVNDFTCSQISPAAIASNCYSSLILDYFSYPLSMKSDLSVSSAGPISQFNYKQSFSNPTCLILATVPHNLTTITKPLKYSYINKCSRFLSDDRTEVPQLVNANQYSPCVSIVPSTVWEDGDYYRKQLSPLEGGGWLVASGSTVAMTEQLQMGFGITVQYGTDTNSVCPKLEFANDTKIASQLGNCVEYSLYGVSGRGVFQNCTAVGVRQQRFVYDAYQNLVGYYSDDGNYYCLRACVSVPVSVIYDKETKTHATLFGSVACEHISSTMSQYSRSTRSMLKRRDSTYGPLQTPVGCVLGLVNSSLFVEDCKLPLGQSLCALPDTPSTLTPRSVRSVPGEMRLASIAFNHPIQVDQLNSSYFKLSIPTNFSFGVTQEYIQTTIQKVTVDCKQYVCNGFQKCEQLLREYGQFCSKINQALHGANLRQDDSVRNLFASVKSSQSSPIIPGFGGDFNLTLLEPVSISTGSRSARSAIEDLLFDKVTIADPGYMQGYDDCMQQGPASARDLICAQYVAGYKVLPPLMDVNMEAAYTSSLLGSIAGVGWTAGLSSFAAIPFAQSIFYRLNGVGITQQVLSENQKLIANKFNQALGAMQTGFTTTNEAFHKVQDAVNNNAQALSKLASELSNTFGAISASIGDIIQRLDVLEQDAQIDRLINGRLTTLNAFVAQQLVRSESAALSAQLAKDKVNECVKAQSKRSGFCGQGTHIVSFVVNAPNGLYFMHVGYYPSNHIEVVSAYGLCDAANPTNCIAPVNGYFIKTNNTRIVDEWSYTGSSFYAPEPITSLNTKYVAPQVTYQNISTNLPPPLLGNSTGIDFQDELDEFFKNVSTSIPNFGSLTQINTTLLDLTYEMLSLQQVVKALNESYIDLKELGNYTYYNKWPW
Take B1: the binding result was “no binding (tested: 25 ng, 50 ng, 75 ng, 100 ng, and 125 ng)”.
